Assay results as given in publication PMC2330087, “Mechanistic Insights into a Novel Exporter-Importer System of Mycobacterium tuberculosis Unravel Its Role in Trafficking of Iron” (PLoS ONE, 2008).

B1: rIrtA (recombinant purified IrtA, Rv1348) (natural protein)
chain: MARGLQGVMLRSFGARDHTATVIETISIAPHFVRVRMVSPTLFQDAEAEPAAWLRFWFPDPNGSNTEFQRAYTISEADPAAGRFAVDVVLHDPAGPASSWARTVKPGATIAVMSLMGSSRFDVPEEQPAGYLLIGDSASIPGMNGIIETVPNDVPIEMYLEQHDDNDTLIPLAKHPRLRVRWVMRRDEKSLAEAIENRDWSDWYAWATPEAAALKCVRVRLRDEFGFPKSEIHAQAYWNAGRAMGTHRATEPAATEPEVGAAPQPESAVPAPARGSWRAQAASRLLAPLKLPLVLSGVLAALVTLAQLAPFVLLVELSRLLVSGAGAHRLFTVGFAAVGLLGTGALLAAALTLWLHVIDARFARALRLRLLSKLSRLPLGWFTSRGSGSIKKLVTDDTLALHYLVTHAVPDAVAAVVAPVGVLVYLFVVDWRVALVLFGPVLVYLTITSSLTIQSGPRIVQAQRWAEKMNGEAGSYLEGQPVIRVFGAASSSFRRRLDEYIGFLVAWQRPLAGKKTLMDLATRPATFLWLIAATGTLLVATHRMDPVNLLPFMFLGTTFGARLLGIAYGLGGLRTGLLAARHLQVTLDETELAVREHPREPLDGEAPATVVFDHVTFGYRPGVPVIQDVSLTLRPGTVTALVGPSGSGKSTLATLLARFHDVERGAIRVGGQDIRSLAADELYTRVGFVLQEAQLVHGTAAENIALAVPDAPAEQVQVAAREAQIHDRVLRLPDGYDTVLGANSGLSGGERQRLTIARAILGDTPVLILDEATAFADPESEYLVQQALNRLTRDRTVLVIAHRLHTITRADQIVVLDHGRIVERGTHEELLAAGGRYCRLWDTGQGSRVAVAAAQDGTR
notes: also called p23-IrtA
B2: rIrtB (recombinant purified IrtB, Rv1349) (natural protein)
chain: MIRTWIALVPNDHRARLIGFALLAFCSVVARAVGTVLLVPLMAALFGEAPQRAWLWLGWLSAATVAGWVLDAVTARIGIELGFAVLNHTQHDVADRLPVVRLDWFTAENTATARQAIAATGPELVGLVVNLVTPLTSAILLPAVIALALLPISWQLGVAALAGVPLLLGALWASAAFARRADTAADKANTALTERIIEFARTQQALRAARRVEPARSLVGNALASQHTATMRLLGMQIPGQLLFSIASQLALIVLAGTTAALTITGTLTVPEAIALIVVMVRYLEPFTAVSELAPALESTRATLGRIGSVLTAPVMVAGSGTWRDGAVVPRIEFDDVAFGYDGGSGPVLDGVSFCLQPGTTTAIVGPSGCGKSTILALIAGLHQPTRGRVLIDGTDVATLDARAQQAVCSVVFQHPYLFHGTIRDNVFAADPGASDDQFAQAVRLARVDELIARLPDGANTIVGEAGSALSGGERQRVSIARALLKAAPVLLVDEATSALDAENEAAVVDALAADPRSRTRVIVAHRLASIRHADRVLFVDDGRVVEDGSISELLTAGGRFSQFWRQQHEAAEWQILAE
notes: also called p28-IrtB

Key:
[1] = biological target: IrtB-Rv2895c two-component system (rIrtB in LP-49 liposomes with rRv2895c) (Mycobacterium tuberculosis, UniProt P9WL31+P9WQJ7)
Chain of IrtB-Rv2895c two-component system (rIrtB in LP-49 liposomes with rRv2895c) (P9WL31 whole entry, one chain of several): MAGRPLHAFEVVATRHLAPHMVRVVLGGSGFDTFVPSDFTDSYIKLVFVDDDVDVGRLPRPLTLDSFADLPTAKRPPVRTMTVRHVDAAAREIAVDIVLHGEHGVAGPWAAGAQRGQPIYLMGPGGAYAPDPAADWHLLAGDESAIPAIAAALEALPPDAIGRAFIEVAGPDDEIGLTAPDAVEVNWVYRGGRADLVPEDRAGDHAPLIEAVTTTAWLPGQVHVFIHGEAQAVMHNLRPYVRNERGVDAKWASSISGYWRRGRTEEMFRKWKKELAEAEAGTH

[2] = biological target: the molecule itself; experiment: SEC + other: circular dichroism

| Molecule | inorganic phosphate release in proteoliposomes [1] | binding result [2] |
| --- | --- | --- |
| Nc1ncnc2c1ncn2[C@@H]1O[C@H](COP(=O)(O)OP(=O)(O)OP(=O)(O)O)[C@@H](O)[C@H]1O [ATP] | The increase in ATPase activity of (a) LP-49 liposomes after incubation with Fe-cMyco bound rRv2895c |  |
| B1 |  | binds |
| B2 |  | binds |
